According to the supplement of paper PMC9732359:
± gives the uncertainty stated by the source.

Assay: protein stability index of a GFP-peptide fusion (yeast GPS) (PSI 1-4); higher = more stable; sorted into four equal gates, so the index is relative within each strain
Summary of the method: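 For each peptide, the protein stability index sums the read frequency in every gate after multiplying it by the gate number. Read frequencies came from plasmids that were PCR-amplified from each gate and Illumina-sequenced, with reads assigned to strains by barcodes. The gates were four equal bins of GFP/Cherry fluorescence ratio applied to mid-log yeast in leucine-free medium carrying a pooled library of tiled 17-residue yeast protein peptides fused downstream of GFP on a Cherry-expressing plasmid.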

| Sequence | protein stability index (doa10∆) | protein stability index (pdr5∆) | protein stability index (san1∆) | protein stability index (ubr1∆) |
| --- | --- | --- | --- | --- |
| QSTPVLLNHGERAELET [RPN1] | 3.03 ± 0.13 | 2.31 ± 0.12 | 2.02 ± 0.16 | 2.66 ± 0.078 |
| APHDSEATLLTNSNNGS [SNF5] | 3.05 ± 0.065 | 2.85 ± 0.061 | 2.91 ± 0.045 | 2.97 ± 0.043 |
| NNDGSYGLFLKYHKEQF [SRB8] | 2.61 ± 0.086 | 2.34 ± 0.07 | 2.12 ± 0.12 | 1.82 ± 0.069 |
| EYQVIGRRLPTESVPEP [RPL20A] | 3.08 ± 0.11 | 3.21 ± 0.1 | 3.1 ± 0.13 | 3.15 ± 0.06 |
| EPILGQITLTFISELCS [YML103C/NUP188] | 2.6 ± 0.06 | 2.32 ± 0.062 | 3.1 ± 0.055 | 3.02 ± 0.044 |
| TMHTKTYAAEIAHNISA [RPL32] | 2.34 ± 0.042 | 2.42 ± 0.04 | 2.21 ± 0.051 | 2.33 ± 0.036 |
| RHLRRTGKVSEFISIYS [RET1] | 1.48 ± 0.14 | 2.05 ± 0.13 | – | 1.37 ± 0.14 |
| VNGLLQVLMDINTLNGG [GAL11] | 2.98 ± 0.079 | 3.03 ± 0.077 | 3 ± 0.075 | 2.91 ± 0.036 |
| GKEVEVLMETKNTQSPQ [SNU114] | 3.19 ± 0.22 | 3.6 ± 0.095 | – | 3.44 ± 0.11 |
